# Data published in patent US20170368132A1 (published 2017).
# Changes are numbered by the printed parent chain. Names may count otherwise. Non-standard residues stand in square brackets, D forms with d. Groups on a side chain read outwards from the residue. *: point of attachment. 5FAM = O=C1OC2(c3ccc(O)cc3Oc3cc(O)ccc32)c2ccc(C(=O)*)cc21
# T1: Rad51, fluorescently labelled (microscale thermophoresis) (UniProt Q06609 1-339, limits assumed, fluorescently labelled according to the manufacturer's protocol (site not stated))
# T1 construct: Purified labelled protein at about 500 nM; The buffer contained 0.5 mM ATP and 2.5 uM ssDNA
# T1 sequence (looked up): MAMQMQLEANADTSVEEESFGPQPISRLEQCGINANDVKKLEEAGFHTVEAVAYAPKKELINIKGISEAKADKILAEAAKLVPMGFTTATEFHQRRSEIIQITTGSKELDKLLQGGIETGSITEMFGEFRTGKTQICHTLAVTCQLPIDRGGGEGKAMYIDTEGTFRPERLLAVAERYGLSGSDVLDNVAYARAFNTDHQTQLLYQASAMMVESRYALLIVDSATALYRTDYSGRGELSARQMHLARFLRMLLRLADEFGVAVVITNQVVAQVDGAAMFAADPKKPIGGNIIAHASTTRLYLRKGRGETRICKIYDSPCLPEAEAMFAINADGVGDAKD
# T2: H. sapiens Rad51 (H. sapiens, UniProt Q06609 1-339)
# T2 construct: Expressed in yeast as a two-hybrid fusion; also called human RAD51
# T2 sequence: T1 sequence (looked up)
# B1: Rad51 (S208E; A209D) (enzyme)
# chain: T1 sequence (looked up) with S208E, A209D
# notes: Human RAD51 mutant tested by Y2H; also called human RAD51 S208E A209D
# B2: Rad51 (A190L; A192L) (enzyme)
# chain: T1 sequence (looked up) with A190L, A192L
# notes: Human RAD51 mutant tested by Y2H; also called human RAD51 A190L A192L
# B3: Rad51 (Q202R, Y205D, Q206A) (enzyme)
# chain: T1 sequence (looked up) with Q202R, Y205D, Q206A
# notes: Human RAD51 mutant tested by Y2H; also called human RAD51 Q202R Y205D Q206A
# B4: Rad51 (F86E; A89E) (enzyme)
# chain: T1 sequence (looked up) with F86E, A89E
# notes: Human RAD51 mutant tested by Y2H; also called human RAD51 F86E A89E
# B5: Rad51 (S208L; A209E; M210A) (enzyme)
# chain: T1 sequence (looked up) with S208L, A209E, M210A
# notes: Human RAD51 mutant tested by Y2H; also called human RAD51 S208L A209E M210A
# What was measured:
# [1] = biological target: T1, Rad51, fluorescently labelled …; experiment: microscale thermophoresis, labelled Rad51 about 500 nM, PBS
# Procedure: (§1) Microscale thermophoresis was performed as previously described (see, for e.g. Jerabek-Willemsen, M., Wienken, C. J., Braun, D., Baaske, P. & Duhr, S. Molecular interaction studies using microscale thermophoresis. Assay Drug Dev. Technol. 9, 342-353 (2011)). The affinity of the Compound was measured using the Monolith NT.115 from Nanotemper Technologies. Rad51 was fluorescently labelled according to the manufacturer's protocol and the labelled protein used for each assay was about 500 nM. A solution of unlabelled peptide was diluted for appropriate serial concentration gradient. The samples were loaded into silica capillaries (Polymicro Technologies). Measurements were performed at room temperature in buffer containing PBS, 0.1% Tween 20, 0.5 mM ATP, 2.5 uM ssDNA, with 1 mM CaCl2 (when mentioned). Measurements were done using 12% LED power and 60% MST power. The assays were repeated three times for each affinity measurement. Data analyses were performed using Nanotemper Analysis software and OriginPro 8.0 software provided by the manufacturer.
# H. sapiens Rad51 = biological target: T2, H. sapiens Rad51; experiment: yeast two-hybrid, human RAD51 mutant
# Procedure: (§2) The ability of peptides to bind human RAD51 with various mutations was then tested by Y2H assay. […] While mutations affecting BRCA2 binding had no effect on peptide binding, mutations that affected RAD51-AP1 binding did disrupt peptide binding. As these mutations were at residues 202, 205, and 206, they were consistent with the previous fusion data showing binding somewhere in the 190-218 region, and indicated the peptide SEQ ID NO.:5 contacts at least residues 202, 205, and 206 of RAD51.
# [2] = biological target: T1, Rad51, fluorescently labelled …; experiment: microscale thermophoresis, 1 mM Ca2+ against no Ca2+
# Procedure: as §1
# [3] = biological target: T1, Rad51, fluorescently labelled …; experiment: microscale thermophoresis, labelled Rad51 about 500 nM, PBS + 1 mM Ca2+
# Procedure: as §1
# Rad51 (A190L; A192L) = biological target: B2; experiment: yeast two-hybrid, human RAD51 mutant
# Procedure: as §2
# [4] = biological target: B3; experiment: yeast two-hybrid, human RAD51 mutant
# Procedure: as §2
# [5] = biological target: B5; experiment: yeast two-hybrid, human RAD51 mutant
# Procedure: as §2
# Rad51 (S208E; A209D) = biological target: B1; experiment: yeast two-hybrid, human RAD51 mutant
# Procedure: as §2
# Rad51 (F86E; A89E) = biological target: B4; experiment: yeast two-hybrid, human RAD51 mutant
# Procedure: as §2
binder,measurement,setting,value
"Ac-[dL][dM][dR][dS][dV][dR][dL][dR][dV]G[dL][dR][dK][dR][dR][dR][dR][dR][dR][dR]-NH2 [Compound 10, Ac-lmrsvrlrvGlrkrrrrrrr-NH2]",Kd,[1],8.55 nM
B1,binding result,H. sapiens Rad51,binds
B2,binding result,H. sapiens Rad51,no binding
B3,binding result,H. sapiens Rad51,binds
B4,binding result,H. sapiens Rad51,no binding
B5,binding result,H. sapiens Rad51,no binding
"Ac-K([C6-5FAM])RRRRRRRKRLGVRLRVSRML-NH2 (also called active peptide 5) [Compound 5, Ac-K(C6_5FAM)-RRRRRRRKRLGVRLRVSRML-NH2]",fold increase of Kd (calcium raised from 0 to 1 mM),[2],3.4 fold
same,Kd,[1],8.37 nM
same,Kd,[3],28.9 nM
KEPTLLGFHTASGKKVKIAKESLDKVKNLFDEKEQ (Y2H fusion in yeast) [residues 1517-1551 of human BRCA2 used as Y2H bait],binding result,Rad51 (A190L; A192L),no binding
same,binding result,[4],binds
same,binding result,[5],no binding
same,binding result,Rad51 (S208E; A209D),no binding
same,binding result,Rad51 (F86E; A89E),binds
